Experimental data from patent US20240166757A1.

B1: SEA-CD70 (nonfucosylated h1F6) (antibody, INN chains, looked up, V domains shown, part only)
VH: QVQLVQSGAEVKKPGASVKVSCKASGYTFTNYGMNWVRQAPGQGLKWMGWINTYTGEPTYADAFKGRVTMTRDTSISTAYMELSRLRSDDTAVYYCARDYGDYGMDYWGQGTTVTVSS
VL: DIVMTQSPDSLAVSLGERATINCRASKSVSTSGYSFMHWYQQKPGQPPKLLIYLASNLESGVPDRFSGSGSGTDFTLTISSLQAEDVAVYYCQHSREVPWTFGQGTKVEIK
modifications: nonfucosylated afucosylated
B2: SGN-70 (fucosylated h1F6) (antibody, INN chains, looked up, V domains shown, part only)
VH: B1 VH
VL: B1 VL

How the values were obtained:
hFcγR 2b (human) = hFcγR 2b (human) (UniProt P31994); assay: BLI; biotinylated avi-tagged receptor-monomeric Fc fusion on streptavidin biosensor, antibody titrated as analyte; 1:1 global fit
Chain of hFcγR 2b (human) (P31994 43-217): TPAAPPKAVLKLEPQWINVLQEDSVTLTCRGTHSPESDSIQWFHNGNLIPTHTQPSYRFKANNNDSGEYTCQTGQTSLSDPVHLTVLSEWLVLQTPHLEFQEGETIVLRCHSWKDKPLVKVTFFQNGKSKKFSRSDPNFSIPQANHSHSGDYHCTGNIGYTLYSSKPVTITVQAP

[1] = target: hCD64 P2 mFc.67 N297A LALA-PG avi (human) (UniProt P12314); assay: as above
[2] = target: hFcRN mFc.67 N297A IHH avi biotin (human) (UniProt P55899); assay: BLI at pH 7.46 (row 'hFcRN pH 7.46'); biotinylated hFcRN-monomeric Fc fusion on streptavidin biosensor, antibody titrated as analyte; 1:1 global fit
[3] = target: hFcRN mFc.67 N297A IHH avi biotin (human) (UniProt P55899); assay: BLI at pH 6.09 (row 'hFcRN pH 6.09'); biotinylated hFcRN-monomeric Fc fusion on streptavidin biosensor, antibody titrated as analyte; 1:1 global fit
[4] = target: hCD70 Biotin E131664-01 (human) (UniProt P32970); assay: BLI; antibody as probe on AHC (anti-Fc) biosensor, hCD70 Biotin titrated as analyte; '37 C' printed with the probe; 1:1 global fit
Chain of hCD70 Biotin E131664-01 (human) (P32970 39-193 limits assumed): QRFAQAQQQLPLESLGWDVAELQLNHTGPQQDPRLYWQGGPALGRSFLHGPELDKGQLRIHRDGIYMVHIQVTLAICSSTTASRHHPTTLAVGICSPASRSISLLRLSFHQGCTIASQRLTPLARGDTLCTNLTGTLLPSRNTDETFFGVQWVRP

[5] = target: hCD70 Biotin E131664-01 (human) (UniProt P32970); assay: BLI; antibody as probe on AHC (anti-Fc) biosensor, hCD70 Biotin titrated as analyte; '37 C' printed with the probe; 1:1 global fit [Cont.]
[6] = target: hFcgR 3a V158 mFc.67 N297A LALAPG avi biotin (human) (UniProt P08637); assay: BLI; biotinylated FcγR fusion on streptavidin biosensor, antibody titrated; 1:1 global fit
[7] = target: hFcgR 2a R131 mFc.67 N297A LALAPG avi biotin (human) (UniProt P12318); assay: BLI; biotinylated avi-tagged receptor-monomeric Fc fusion on streptavidin biosensor, antibody titrated as analyte; 1:1 global fit
[8] = target: hFcgR 3a F158 mFc.67 N297A LALAPG avi biotin (human) (UniProt P08637); assay: as above
[9] = target: hFcgR 2a H131 mFc.67 N297A LALAPG avi biotin (human) (UniProt P12318); assay: as above
[10] = target: cynomolgus FcγRIIIa receptor overexpressed on CHO cells (cynomolgus) (UniProt Q8SPW2); assay: flow cytometry on CHO cells overexpressing cynomolgus FcγRIIIa (CHO/cynoCD16); detection with anti-human IgG-PE
Chain of cynomolgus FcγRIIIa receptor overexpressed on CHO cells (cynomolgus) (Q8SPW2 17-254): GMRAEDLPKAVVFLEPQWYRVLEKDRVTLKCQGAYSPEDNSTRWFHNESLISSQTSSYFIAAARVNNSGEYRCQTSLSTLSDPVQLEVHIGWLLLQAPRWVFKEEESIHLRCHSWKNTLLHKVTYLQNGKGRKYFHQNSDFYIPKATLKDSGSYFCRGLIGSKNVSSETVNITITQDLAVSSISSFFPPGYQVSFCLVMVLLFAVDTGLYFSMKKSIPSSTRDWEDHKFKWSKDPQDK

[11] = target: high affinity human FcγRIIIa receptor (158V) overexpressed on CHO cells (human) (UniProt P08637); assay: flow cytometry on CHO cells overexpressing human FcγRIIIa 158V (CHO/hCD16); detection with anti-human IgG-PE
Chain of high affinity human FcγRIIIa receptor (158V) overexpressed on CHO cells (human) (P08637 17-254 F176V): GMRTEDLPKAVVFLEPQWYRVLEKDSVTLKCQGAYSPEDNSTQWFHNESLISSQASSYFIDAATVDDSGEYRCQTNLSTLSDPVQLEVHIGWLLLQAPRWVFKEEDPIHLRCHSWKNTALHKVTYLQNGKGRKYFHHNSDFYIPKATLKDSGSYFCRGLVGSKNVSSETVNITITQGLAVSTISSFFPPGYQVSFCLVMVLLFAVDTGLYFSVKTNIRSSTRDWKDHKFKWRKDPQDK

| Binder | Kd (hFcγR 2b (human)) [µM] | Kd [1] [µM] | Kd [2] [µM] | Kd [3] [µM] | Kd [4] [µM] | kon [5] [M⁻¹ s⁻¹] | Kd [6] [µM] | Kd [7] [µM] | kon [7] [M⁻¹ s⁻¹] | kon (hFcγR 2b (human)) [M⁻¹ s⁻¹] | kon [1] [M⁻¹ s⁻¹] | Kd [8] [µM] | kon [8] [M⁻¹ s⁻¹] | Kd [9] [µM] | kon [9] [M⁻¹ s⁻¹] | EC50 (read off the curve) [10] [mg/L] | kon [2] [M⁻¹ s⁻¹] | kon [3] [M⁻¹ s⁻¹] | EC50 (read off the curve) [11] [mg/L] |
| --- | --- | --- | --- | --- | --- | --- | --- | --- | --- | --- | --- | --- | --- | --- | --- | --- | --- | --- | --- |
| B1 | 27 | 0.00042 | 16.7 | 0.019 | 0.00024 | – | – | – | – | – | – | – | – | – | – | – | – | – | – |
| B2 | 25 | 0.00066 | 15 | 0.017 | 0.00023 | 270000 | 0.86 | 4.5 | 77000 | 26000 | 770000 | 5.3 | 27000 | 2.6 | 100000 | 1 | 42000 | 720000 | 1 |
